We go through one molecule from patent US20030044789A1, “Identification and quantification of a protein carrying an N-terminal polyhistidine affinity tag” (priority 2000, published 2003).

This experiment concerns Penta-His antibody. Kind of experiment: Competition study with HisTagged proteins (HisTag FPIA). Type of experiment: binding. The conditions noted are these: 1-2 nM fluor-AHHHHHHG, 10 nM Penta-His antibody, approx. 60 min at room temperature; read-out: approximate IC50 (concentration of competitor required to decrease FP signal by 50%). On the procedure: Purified N-terminal HisTagged proteins were serially diluted into PBS +0.01% NP-40 in a multiwell plates. 1-2 nM fluorescein labeled peptide (fluor-AHHHHHHG) and 10 nM of Penta-His antibody were then added to each reaction to a final volume of 50-100 ul. After approximately 60 min incubation at room temperature to insure equilibrium binding, the polarization was measured on a Tecan Polarian multiwell instrument.
Protein Kinase A (PKA) is a serine/threonine kinase, ZAP-70 is a tyrosine kinase, and the Estrogen Receptor Ligand Binding Domain (ER-LBD) is comprised of the C-terminal 300 amino acids of ERα; all three proteins were highly purified and active.

B1: ZAP-70: recombinant human tyrosine kinase with N-terminal six-histidine fusion (protein, UniProt P43403 1-619, looked up)
Tyrosine-protein kinase ZAP-70: MPDPAAHLPFFYGSISRAEAEEHLKLAGMADGLFLLRQCLRSLGGYVLSLVHDVRFHHFPIERQLNGTYAIAGGKAHCGPAELCEFYSRDPDGLPCNLRKPCNRPSGLEPQPGVFDCLRDAMVRDYVRQTWKLEGEALEQAIISQAPQVEKLIATTAHERMPWYHSSLTREEAERKLYSGAQTDGKFLLRPRKEQGTYALSLIYGKTVYHYLISQDKAGKYCIPEGTKFDTLWQLVEYLKLKADGLIYCLKEACPNSSASNASGAAAPTLPAHPSTLTHPQRRIDTLNSDGYTPEPARITSPDKPRPMPMDTSVYESPYSDPEELKDKKLFLKRDNLLIADIELGCGNFGSVRQGVYRMRKKQIDVAIKVLKQGTEKADTEEMMREAQIMHQLDNPYIVRLIGVCQAEALMLVMEMAGGGPLHKFLVGKREEIPVSNVAELLHQVSMGMKYLEEKNFVHRDLAARNVLLVNRHYAKISDFGLSKALGADDSYYTARSAGKWPLKWYAPECINFRKFSSRSDVWSYGVTMWEALSYGQKPYKKMKGPEVMAFIEQGKRMECPPECPPELYALMSDCWIYKWEDRPDFLTVEQRMRACYYSLASKVEGPPGSTQKAEAACA
modifications: N-terminal polyhistidine tag
B1: the IC50 was about 36 nM.
